# Results from article PMC10643139.
# What was measured:
# Assay in all cases: NanoBRET
# [1] = molecular target: Halo-SSX-C (HaloTag fused to the SSX1 C-terminal region present in SS18-SSX1); conditions: live HEK293T cells; mean ± S.E.M of n = 3 biological replicates; parent: est. 72; read off a plot
# [2] = molecular target: Halo-SSX-C^E184* (SSX-C mutant lacking the last five amino acids); conditions: live HEK293T cells; mean ± S.E.M of n = 3 biological replicates; parent: est. 40; read off a plot
# [3] = molecular target: Halo-SSX-C^ΔRD (SSX-C with a deletion of the SSXRD); conditions: live HEK293T cells; mean ± S.E.M of n = 3 biological replicates; parent: est. 19; read off a plot
substance,measurement,setting,value
histone H2A fused to NanoLuc luciferase (NLuc-H2A) (from UniProt P0C0S8) K118R; K119R,response,[1],42 mBU
same,response,[2],36 mBU
same,response,[3],16 mBU
